This note sets out measurements from publication PMC12329532 (2025).

What is called Kd is the equilibrium constant for the complex coming apart. Read a low Kd as higher affinity.

Common to all, as to assay: FP
The target in assay [1] is His6-IDO1 K101A, purified (human, UniProt P14902 1-403, K101A, Alexa Fluor 488 on Cys groups).
The target in assay [2] is His6-IDO1 K101D, purified (human, UniProt P14902 1-403, K101D, Alexa Fluor 488 on Cys groups).
The target in assay [3] is N-terminally His6-tagged human IDO1 (indoleamine 2,3-dioxygenase 1), purified apo-IDO1 (human, UniProt P14902 1-403, Alexa Fluor 488 on Cys groups (in the fluorescence polarisation assay only)).
Chain of N-terminally His6-tagged human IDO1 (indoleamine 2,3-dioxygenase 1), purified apo-IDO1 (P14902 whole entry): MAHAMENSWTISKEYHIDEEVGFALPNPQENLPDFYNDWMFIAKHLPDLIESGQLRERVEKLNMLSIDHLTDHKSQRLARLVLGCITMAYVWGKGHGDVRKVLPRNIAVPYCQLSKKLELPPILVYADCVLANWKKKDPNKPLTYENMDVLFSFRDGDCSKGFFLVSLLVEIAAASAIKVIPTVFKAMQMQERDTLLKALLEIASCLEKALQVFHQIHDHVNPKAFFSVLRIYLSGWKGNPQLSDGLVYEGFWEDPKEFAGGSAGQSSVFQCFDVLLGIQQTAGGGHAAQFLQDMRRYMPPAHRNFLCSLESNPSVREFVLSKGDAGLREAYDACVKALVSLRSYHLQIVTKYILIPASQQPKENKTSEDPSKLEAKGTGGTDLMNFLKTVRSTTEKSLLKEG

B1: human recombinant TC-GAPDH (GAPDH with a tetra-Cys insertion sequence near its heme binding site), wild type, purified (enzyme)
chain: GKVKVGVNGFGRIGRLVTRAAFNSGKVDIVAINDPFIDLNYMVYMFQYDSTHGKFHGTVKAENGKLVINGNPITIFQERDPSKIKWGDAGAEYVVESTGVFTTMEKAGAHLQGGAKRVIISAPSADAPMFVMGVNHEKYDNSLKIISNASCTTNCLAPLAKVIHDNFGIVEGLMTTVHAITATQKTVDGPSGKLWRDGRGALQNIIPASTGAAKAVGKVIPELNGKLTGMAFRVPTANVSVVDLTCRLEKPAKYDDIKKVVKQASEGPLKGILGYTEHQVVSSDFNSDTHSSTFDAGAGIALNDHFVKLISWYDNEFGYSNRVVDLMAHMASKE
Turning to B1, the Kd in assay [1] amounted to 4.66 µM; in assay [2] it was 4.45 µM; in assay [3] it was 1.79 µM.
